The results in this text go back to the supplement of paper PMC9170038.

The series has as its system MS2 coat protein. Kind of series: apparent KD of MS2 coat protein; designed switch direction (-1 OFF switch, 1 ON switch): -1; higher = weaker reporter binding. The procedure, abridged:
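Transcription of designed RNA switches on Illumina chips was done by stalled E. coli RNA polymerase. SNAP-549-labelled MS2 coat protein was then titrated in doubling steps from 0.7 or 1.5 nM to 3 µM, with steps of 0.8–1.5 h at the lowest and 10–20 min at the highest concentration. The per-design median over clusters of curve-fitted normalised fluorescence is reported as apparent KD.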

The mark [1] stands for this setting: Eterna round: R95, input ligand: microRNA oligo, concentration not stated.
The mark [2] stands for this setting: Eterna round: R95, input ligand: FMN 200 uM.
[3] abbreviates: Eterna round: R95, input ligand: none.
[4] abbreviates: input ligand: microRNA oligo, concentration not stated.

Turning to “GCCCUUAUUGUUAGGAUAUAACGGAAAUACAACCGUUAGAAGGAACAUGAGGAUCACCCAUGUGCCAUACAGCC [Eternabot (Original) Solution 39] (Eterna round: R97, puzzle: Brourd's mod of Exclusion 4)”, the “apparent KD of MS2 coat protein” value runs as follows: (input ligand: FMN 200 uM) 119 nM; (input ligand: none) 29.5 nM.

For “GCCUCACAUGAGGAUCACCCAUGUCAGGAUAUCUAAGGCGAGGUGCAGGCACUUCGUGAGAGAAGGGACGUCAA [Ercecequ] (puzzle: Exclusion 1)”, under setting [1], the “apparent KD of MS2 coat protein” value was 18 nM.

Take “GCCUUAUCCGUCAGGAUAUACAGCCGCUCCCUGUUGUAGAAGGGACAUGAGGAUCACCCAUGUACGUACCACCC [alecazam9] (Eterna round: R97, puzzle: Brourd's mod of Exclusion 4)”: the “apparent KD of MS2 coat protein” value (input ligand: FMN 200 uM) amounted to 29.1 nM and the “apparent KD of MS2 coat protein” value (input ligand: none) worked out at 31.1 nM.

On to “GCGAAAGCAACAAGUGAAAACAUGAGGAUCACCCAUGUCCUCAUUUGCUCGUCUUAUAAGCUAUGCGAAAGCAUAGC [Sensor 3, v1 - 10] (puzzle: Sensor v3, turn-off variant 1)”, for which the “apparent KD of MS2 coat protein” value is 52.4 nM under setting [2], 511 nM under setting [1] and 74.4 nM under setting [3].

On to “GCGAAAGCAAGCAAGUGAAACAUGAGGAUCACCCAUGUCCUCAUUUGCUCGUCUUAUAAGCUAUGCGAAAGCAUAGC [Sensor 3, v1 - 2] (puzzle: Sensor v3, turn-off variant 1)”, for which the “apparent KD of MS2 coat protein” value by setting is: under setting [2], 13.9 nM; under setting [1], 220 nM; under setting [3], 10.5 nM.

As for “GCGAAAGCAAGCAAGUGAAACAUGAGGAUCACCCAUGUCCUCGUUUGCUCGUCUUAUAAGCUAUGCGAAAGCAUAGC [Sensor 3, v1 - 4] (puzzle: Sensor v3, turn-off variant 1)”, the “apparent KD of MS2 coat protein” value by setting is: under setting [2], 12.9 nM; under setting [1], 105 nM; under setting [3], 10.2 nM.

“GCGCAAACGCCAAAAGGCGAAACAACAUGAGGAUCACCCAUGUAGGAUAUCGAUUGCUUUGCAGUCGAGAAGGACAAAAUGCGC [JL ENG3 3.80 Mod 6] (Eterna round: R96, puzzle: Exclusion NG 3)”: the “apparent KD of MS2 coat protein” value is, setting by setting: (input ligand: FMN 200 uM) 11.6 nM; under setting [4], 10.6 nM; (input ligand: none) 15.7 nM.

As for “GCGCAAACGCCAAAAGGCGAAACAACAUGAGGAUCACCCAUGUAGGAUAUCGAUUGCUUUGCAGUCGAGAAGGACAUGAUGCGC [JL ENG3 3.80 Mod 2] (Eterna round: R96, puzzle: Exclusion NG 3)”, the “apparent KD of MS2 coat protein” value is, setting by setting: (input ligand: FMN 200 uM) 43.9 nM; under setting [4], 18.5 nM; (input ligand: none) 20.8 nM.

With “GCGCACCUACCAAAAGGUAGGUCAACAUGAGGAUCACCCAUGUAGGAUAUCGAUUGCUUUGCAGUCGAGAAGGAUAUGAUGCGC [JL ENG3 3.80 Mod 12] (Eterna round: R96, puzzle: Exclusion NG 3)”, the “apparent KD of MS2 coat protein” value by setting is: (input ligand: FMN 200 uM) 27.2 nM; under setting [4], 16.6 nM; (input ligand: none) 24 nM.

As for “GCGCCAUCGUGAGAUGGCGUAACUACAUGAGGAUCACCCAUGUAGGAUAUCGAUUGCUUUGCAGUCGAGAAGGGCAAGGGAUUU [JL ENG3 3.88] (Eterna round: R96, puzzle: Exclusion NG 3)”, the “apparent KD of MS2 coat protein” value is, setting by setting: (input ligand: FMN 200 uM) 25.8 nM; under setting [4], 14.7 nM; (input ligand: none) 20.4 nM.

As to “GCGCCAUCGUGAGAUGGCGUAAUUACAUGAGGAUCACCCAUGUAGGAUAUCGAUUGCUUUGCAGUCGAGAAGGGCGUGAUAAGU [JL ENG3 3.71] (Eterna round: R96, puzzle: Exclusion NG 3)”, the “apparent KD of MS2 coat protein” value (input ligand: FMN 200 uM) amounted to 86 nM, the “apparent KD of MS2 coat protein” value under setting [4] was found to be 59.5 nM and the “apparent KD of MS2 coat protein” value (input ligand: none) turned out to be 68.9 nM.

Turning to “GCGCCAUCGUGAGAUGGCGUAAUUACAUGAGGAUCACCCAUGUAGGAUAUCGAUUGCUUUGCAGUCGAGAAGGGCGUGAUAAUU [JL ENG3 3.70] (Eterna round: R96, puzzle: Exclusion NG 3)”, the “apparent KD of MS2 coat protein” value by setting is: (input ligand: FMN 200 uM) 77.7 nM; under setting [4], 52.5 nM; (input ligand: none) 75.5 nM.

For “GCGCGCGUUGUGAGGAUAUCGGGCCCGAAAGGGCCCGAGAAGGCACAUGAGGAUCACCCAUGUAAGGUGUGUGU [-35.5, -34.8 kcal, A 23%, 0-6bis] (Eterna round: R97, puzzle: Brourd's mod of Exclusion 4)”, the “apparent KD of MS2 coat protein” value runs as follows: (input ligand: FMN 200 uM) 619 nM; (input ligand: none) 613 nM.

In the case of “GCGCGGCGUGUAGGAUAUGCGCGCGGGUCGCGCGCAGAAGGACAUGAGGAUCACCCAUGUGGCGCGCUUGGCGCGCCGCCGCGC [-48, -45 kcal and 14% A] (Eterna round: R96, puzzle: Exclusion NG 1)”, the “apparent KD of MS2 coat protein” value came to 16.6 nM (input ligand: FMN 200 uM), 9.64 nM under setting [4] and 12.9 nM (input ligand: none).

“GCGGACUCGAUCGUGAGAUCGGAGACAUGAGGAUCACCCAUGUAGGAUAUCGAUUGCUUUGCAGUCGAGAAGGGCGUGGUCCGC [JL denovo 17] (Eterna round: R96, puzzle: Exclusion NG 3)”: the “apparent KD of MS2 coat protein” value by setting is: (input ligand: FMN 200 uM) 152 nM; under setting [4], 98.1 nM; (input ligand: none) 157 nM.

Take “GCGGAGUCAGGAUAUUGAAUUUAACGUACCAAUAAGGUACGCGAGAAGGGACAUGAGGAUCACCCAUGUACCGC [Mat - Exclusion 4 - Eli Mod - D35] (Eterna round: R97, puzzle: Exclusion 4)”: the “apparent KD of MS2 coat protein” value reads like this: (input ligand: FMN 200 uM) 16.5 nM; (input ligand: none) 17.3 nM.

As to “GCGGAGUCAGGAUAUUGAAUUUAACGUACCAAUUAGGUACGCGAGAAGGGACAUGAGGAUCACCCAUGUACCGC [Eli x4 4.03] (Eterna round: R97, puzzle: Exclusion 4)”, the “apparent KD of MS2 coat protein” value was found to be 11.4 nM (input ligand: FMN 200 uM) and 15.9 nM (input ligand: none).

Take “GCGGCGUAUGUAGGAUAUCGGUCAGUUUCUGAUCGAGAAGGACAUGAGGAUCACCCAUGUAAAUUACCGACUUUGUCGGGCCGC [JL ENG1 3.66] (Eterna round: R96, puzzle: Exclusion NG 1)”: the “apparent KD of MS2 coat protein” value is, setting by setting: (input ligand: FMN 200 uM) 20.4 nM; under setting [4], 13.5 nM; (input ligand: none) 17.7 nM.

For “GCGUAGUAUGUAGGAUAUCGGUCAGUUUCUGAUCGAGAAGGACAUGAGGAUCACCCAUGUAAAACGACCGCUUUGUGGUUACGC [JL ENG1 3.58] (Eterna round: R96, puzzle: Exclusion NG 1)”, the “apparent KD of MS2 coat protein” value by setting is: (input ligand: FMN 200 uM) 42.7 nM; under setting [4], 15.9 nM; (input ligand: none) 19.2 nM.

For “GCUAAACAUGUAGGAUAUGCGUGGCGAAGCUAUGCAGAAGGACAUGAGGAUCACCCAUGUUUUAGCGUCUGCGUACAGAUGCGU [JL ENG1 1.43] (Eterna round: R96, puzzle: Exclusion NG 1)”, the “apparent KD of MS2 coat protein” value runs as follows: (input ligand: FMN 200 uM) 318 nM; under setting [4], 28 nM; (input ligand: none) 31.6 nM.

“GCUAGAGCAGGAUAUCUAGAUCCUCACAUGAGGAUCACCCAUGUAGUCGAAAGACUAAGAAGAGAAGGGCUCUAGC [Omei Ex5 E17] (Eterna round: R97, puzzle: Exclusion 5)”: the “apparent KD of MS2 coat protein” value (input ligand: FMN 200 uM) worked out at 133 nM and the “apparent KD of MS2 coat protein” value (input ligand: none) was 8.81 nM.
